Test [1] concerns the target T1, CD123 expressed on the surface of cells (OCI-AML2, MOLM13, NALM6-CD123+) (human, UniProt P26951 19-378).
T1 chain: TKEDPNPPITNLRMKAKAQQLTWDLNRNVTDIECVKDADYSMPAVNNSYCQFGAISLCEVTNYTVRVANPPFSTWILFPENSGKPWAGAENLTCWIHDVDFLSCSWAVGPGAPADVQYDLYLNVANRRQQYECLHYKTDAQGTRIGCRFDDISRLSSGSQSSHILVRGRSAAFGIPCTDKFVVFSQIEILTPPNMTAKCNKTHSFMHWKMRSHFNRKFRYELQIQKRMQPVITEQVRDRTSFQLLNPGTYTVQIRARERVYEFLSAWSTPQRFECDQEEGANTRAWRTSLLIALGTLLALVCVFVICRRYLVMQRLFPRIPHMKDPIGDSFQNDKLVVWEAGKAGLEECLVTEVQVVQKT
Kind of test: flow cytometry.

Test [2] has as its target T2, CD123-Fc (Sino Biological) (human, UniProt P26951 19-305).
T2 construct: Bought reagent; not shown: Fc of the bought fusion (detected with anti-human Fc, captured on AHC sensor)
T2 sequence: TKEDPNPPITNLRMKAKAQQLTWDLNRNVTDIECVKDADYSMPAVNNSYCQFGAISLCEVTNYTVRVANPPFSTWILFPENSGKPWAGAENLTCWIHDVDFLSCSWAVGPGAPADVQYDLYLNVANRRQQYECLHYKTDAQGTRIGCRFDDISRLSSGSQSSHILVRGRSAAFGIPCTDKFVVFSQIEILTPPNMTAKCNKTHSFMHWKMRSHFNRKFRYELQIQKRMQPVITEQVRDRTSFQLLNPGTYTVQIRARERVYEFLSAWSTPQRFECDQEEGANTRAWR
Kind of test: BLI (Octet), CD123-Fc captured on AHC sensor, Adapter 500-0.69 nM in solution, global 1:1 fit, 25 C. How it is done: To assess the kinetics of CD123 binding, Adapter proteins comprising the D domains were analyzed using Bio-Layer Interferometry (BLI). Adapter proteins comprising a CD123-binding D domain and a P26(Q26-V229) AFP polypeptide (SEQ ID NO: 39) were generated through transient transfection of HEK-293 cells, followed by Ni-Sepharose Excel (Cytiva) and SEC chromatography. BLI experiments were performed using an Octet RED386 (Sartorius). All experiments were performed at 25° C. in kinetic buffer (PBS, 0.1% BSA, 0.02% tween 20) under constant 1000 rpm agitation. CD123-Fc (20 nM) was captured on an AHC sensor (Sartorius) for 250 seconds to a loading density of ˜0.8 nm. […] The surface was regenerated by 3 rounds of 10 seconds of 10 mM Glycine pH 1.5, followed by kinetic buffer. The data was analyzed using a global fit with a 1:1 interaction model from Sartorius Octet Analysis studio.

Test [3] addresses T2, CD123-Fc (Sino Biological). Kind of test: ELISA of MBP fusions for binding to CD123 (FIG. 3). The protocol:
(§1) Parent and mutated variant D domains were expressed as MBP fusions in E. coli (T7 Express, New England Biolabs) by either IPTG (isopropylthio-(3-galactoside) induction for 4 hours at 37° C. in Luria broth containing antibiotics and 0.2% glucose or through auto-induction for 16 hours at 30° C. using MagicMedia (Life Technologies). Post induction, cells were pelleted, washed and resuspended in “leak-out buffer” comprising 200 mM Tris pH 7.5 and 20 mM EDTA. After incubation at 30° C. for 16 hours, supernatant containing MBP fusion proteins were assayed by ELISA for both target binding and expression. Supernatants were added to 96-well Immulon 4HBX microtiter plates coated with anti-MBP polyclonal antibody (Abcam) at 0.0032 ug/ml. Followed by washing, bound MBP fusion proteins were detected either with CD123-Fc (Sino Biological)+anti-human Fc HRP (Abcam) to assess CD123 binding, or with anti-MBP-HRP (New England Biolabs) to assess MBP fusion protein expression.

Test [4] addresses T2, CD123-Fc (Sino Biological). The test can be described thus: ELISA of MBP fusions normalized for protein concentration, serial dilution. The protocol:
as §1

B1: Adapter protein comprising the 6T1D D domain and a P26(Q26-V229) AFP polypeptide (designed binder)
chain: MGSWDEFGRRLYAIEWQLYALGGTEAELAAFEKEIAAFESELQAYKGKGNPEVEKLREIAAVIRENLQAYRHNQESQALAKRSCGLFQKLGEYYLQNAFLVAYTKKAPQLTSSELMAITRKMAATAATCCQLSEDKLLACGEGAADIIIGHLCIRHEMTPVNPGVGQCCTSSYANRRPCFSSLVVDETYVPPAFSDDKFIFHKDLCQAQGVALQTMKQEFLINLVKQKPQITEEQLEAVIADFSGLLEKCCQGQEQEVCFAEEGQKLISKTRAALGV
notes: also called parental D domain (6T1D); not shown: His tag (purified on Ni-Sepharose)
The molecule B1 yielded a 50% effective concentration (EC50) in test [1] of 2.61 µg/mL. In test [2], this molecule displayed a dissociation constant (Kd) of 7.6 nM, a koff of 0.00105 s⁻¹ and a kon of 139000 M⁻¹ s⁻¹.

B2: Adapter protein comprising the 1F9I D domain and a P26(Q26-V229) AFP polypeptide (designed binder)
chain: MGSWDEFGRRLYAIEWQLYAQGGTEAELAAFEKEIAAFESELQAYKGKGNPEVEKLRELAAVIRENLQAYRHNQESQALAKRSCGLFQKLGEYYLQNAFLVAYTKKAPQLTSSELMAITRKMAATAATCCQLSEDKLLACGEGAADIIIGHLCIRHEMTPVNPGVGQCCTSSYANRRPCFSSLVVDETYVPPAFSDDKFIFHKDLCQAQGVALQTMKQEFLINLVKQKPQITEEQLEAVIADFSGLLEKCCQGQEQEVCFAEEGQKLISKTRAALGV
notes: also called 6T1D(L21Q, I59L); not shown: His tag (purified on Ni-Sepharose)
Regarding B2, in test [2], the Kd is 7.6 nM, the off-rate constant (koff) came out at 0.000646 s⁻¹ and the association rate constant (kon) came to 85200 M⁻¹ s⁻¹.

B3: Adapter protein comprising the 8W9C D domain and a P26(Q26-V229) AFP polypeptide (designed binder)
chain: MGSWDEFGRRLYAIEWRLYALGGSEAELAAFEKEIAAFESELQAYKGKGNPEVEKLREIAAVIRSNLQAYRHNQESQALAKRSCGLFQKLGEYYLQNAFLVAYTKKAPQLTSSELMAITRKMAATAATCCQLSEDKLLACGEGAADIIIGHLCIRHEMTPVNPGVGQCCTSSYANRRPCFSSLVVDETYVPPAFSDDKFIFHKDLCQAQGVALQTMKQEFLINLVKQKPQITEEQLEAVIADFSGLLEKCCQGQEQEVCFAEEGQKLISKTRAALGV
notes: also called wild type; not shown: His tag (purified on Ni-Sepharose)
In test [2], B3 displayed a dissociation constant Kd of 5.2 nM, an off-rate constant (koff) of 0.000924 s⁻¹ and an association rate constant (kon) of 177000 M⁻¹ s⁻¹.

B4: Adapter protein comprising the 4I0K D domain and a P26(Q26-V229) AFP polypeptide (designed binder)
chain: MGSWDEFGRRLYAIESQLYALGGTEAELAAFEKEIAAFESELQAYKGKGNPEVEKLREIAAVIRENLQAYRHNQESQALAKRSCGLFQKLGEYYLQNAFLVAYTKKAPQLTSSELMAITRKMAATAATCCQLSEDKLLACGEGAADIIIGHLCIRHEMTPVNPGVGQCCTSSYANRRPCFSSLVVDETYVPPAFSDDKFIFHKDLCQAQGVALQTMKQEFLINLVKQKPQITEEQLEAVIADFSGLLEKCCQGQEQEVCFAEEGQKLISKTRAALGV
notes: also called 6T1D(W16S); not shown: His tag (purified on Ni-Sepharose)
B4 displayed an EC50 in test [1] of 4.26 µg/mL. In test [2], this molecule had an equilibrium dissociation constant (Kd) of 14 nM, a koff of 0.00252 s⁻¹ and a kon of 177000 M⁻¹ s⁻¹.

B5: Adapter protein comprising the 4R8U D domain and a P26(Q26-V229) AFP polypeptide (designed binder)
chain: MGSWDEFGRRLYAIEWQLYALGGTEAELAAFEKEIAAFESELQAYKGEGSPEVEKLREIAAVIRENLQAYRHNQESQALAKRSCGLFQKLGEYYLQNAFLVAYTKKAPQLTSSELMAITRKMAATAATCCQLSEDKLLACGEGAADIIIGHLCIRHEMTPVNPGVGQCCTSSYANRRPCFSSLVVDETYVPPAFSDDKFIFHKDLCQAQGVALQTMKQEFLINLVKQKPQITEEQLEAVIADFSGLLEKCCQGQEQEVCFAEEGQKLISKTRAALGV
notes: also called 6T1D(K48E, N50S); not shown: His tag (purified on Ni-Sepharose)
For the molecule B5, the EC50 in test [1] is 1.9 µg/mL. In addition, in test [2], binding was put at a Kd of 1.2 nM, the koff was 0.000304 s⁻¹ and the on-rate (kon) turned out to be 254000 M⁻¹ s⁻¹.

B6: Adapter protein comprising the 6K4C D domain and a P26(Q26-V229) AFP polypeptide (designed binder)
chain: MGSWAEFGRRLYAIEWQLYALGGTEAELAAFEKEIAAFESELQAYKGKGNPEVEKLREIAAVIRENLQAYRHNQESQALAKRSCGLFQKLGEYYLQNAFLVAYTKKAPQLTSSELMAITRKMAATAATCCQLSEDKLLACGEGAADIIIGHLCIRHEMTPVNPGVGQCCTSSYANRRPCFSSLVVDETYVPPAFSDDKFIFHKDLCQAQGVALQTMKQEFLINLVKQKPQITEEQLEAVIADFSGLLEKCCQGQEQEVCFAEEGQKLISKTRAALGV
notes: also called 6T1D(D5A); not shown: His tag (purified on Ni-Sepharose)
B6: in test [2], the equilibrium dissociation constant (Kd) was found to be 18 nM, the koff amounted to 0.00353 s⁻¹ and the on-rate constant (kon) stood at 197000 M⁻¹ s⁻¹.

B7: Adapter protein comprising the 8O3S D domain and a P26(Q26-V229) AFP polypeptide (designed binder)
chain: MGSWDEFGRRLYAIETQLYALGGTEAELAAFEKEIAAFESELQAYKGKGNPEVEKLREIAAVIRENLQAYRHNQESQALAKRSCGLFQKLGEYYLQNAFLVAYTKKAPQLTSSELMAITRKMAATAATCCQLSEDKLLACGEGAADIIIGHLCIRHEMTPVNPGVGQCCTSSYANRRPCFSSLVVDETYVPPAFSDDKFIFHKDLCQAQGVALQTMKQEFLINLVKQKPQITEEQLEAVIADFSGLLEKCCQGQEQEVCFAEEGQKLISKTRAALGV
notes: also called 6T1D(W16T); not shown: His tag (purified on Ni-Sepharose)
The molecule B7 registered a concentration for a half-maximal effect (EC50) in test [1] of 4.62 µg/mL. In test [2], this molecule had a Kd of 28 nM, a dissociation rate constant (koff) of 0.00665 s⁻¹ and a kon of 235000 M⁻¹ s⁻¹.

B8: Adapter protein comprising the 3F4N D domain and a P26(Q26-V229) AFP polypeptide (designed binder)
chain: MGSWDEFGRRLYAIEWQLYALGGTEAELAAFEKEIAAFESELQAYKGKGSPEVEKLREIAAVIRENLQAYRHNQESQALAKRSCGLFQKLGEYYLQNAFLVAYTKKAPQLTSSELMAITRKMAATAATCCQLSEDKLLACGEGAADIIIGHLCIRHEMTPVNPGVGQCCTSSYANRRPCFSSLVVDETYVPPAFSDDKFIFHKDLCQAQGVALQTMKQEFLINLVKQKPQITEEQLEAVIADFSGLLEKCCQGQEQEVCFAEEGQKLISKTRAALGV
notes: also called 6T1D(N50S); not shown: His tag (purified on Ni-Sepharose)
B8 returned an EC50 in test [1] of 1.83 µg/mL. In test [2], this molecule displayed a Kd of 1.3 nM, an off-rate (koff) of 0.000275 s⁻¹ and a kon of 213000 M⁻¹ s⁻¹.

B9: Adapter protein comprising the 0C8S D domain and a P26(Q26-V229) AFP polypeptide (designed binder)
chain: MGSWDEFSRRLYAIEWQLYALGGTEAELAAFEKEIAAFESELQAYKGEGSPEVEKLRELAAVIRENLQAYRHNQESQALAKRSCGLFQKLGEYYLQNAFLVAYTKKAPQLTSSELMAITRKMAATAATCCQLSEDKLLACGEGAADIIIGHLCIRHEMTPVNPGVGQCCTSSYANRRPCFSSLVVDETYVPPAFSDDKFIFHKDLCQAQGVALQTMKQEFLINLVKQKPQITEEQLEAVIADFSGLLEKCCQGQEQEVCFAEEGQKLISKTRAALGV
notes: also called 0085; 6T1D(G8S, K48E, N50S, I59L); not shown: His tag (purified on Ni-Sepharose)
With B9, the midpoint of the response in test [1], the EC50, lay at 2.44 µg/mL. Moreover, in test [2], the dissociation constant (Kd) is 1 nM, the off-rate constant (koff) was 0.000151 s⁻¹ and the association rate constant (kon) worked out at 146000 M⁻¹ s⁻¹.

B10: 5S5W D domain as MBP fusion (designed binder, not shown: large carriers)
chain: MGSWSEFNMRLDAIYERLTALGGSEAELAAFEKEIAAFESELQAYKGKGNPEVEWLRHSAARIRLELQAYRHN
With B10, the binding result in test [3] was “binds”.

B11: 1J1K D domain as MBP fusion (designed binder, not shown: large carriers; small tags and cut ends)
chain: MGSWDEFSRRLYAIEWRLYALGGSEAELAAFEKEIAAFESELQAYKGKGNPEVEKLREIAAVIRSNLQAYRHN
notes: also called 8W9C (G8S)
Regarding B11, the binding result in test [4] is recorded as “binds”.

B12: 4H2H D domain as MBP fusion (designed binder, not shown: large carriers; small tags and cut ends)
chain: MGSWDEFGRRLYAIEWRLYALGGSEAELAAFEKEIAAFESELQAYKGIGNPEVENLREIAAVIRSNLQAYRHN
notes: also called 8W9C (K48I, K55N)
B12: the binding result in test [4] is “binds”.

B13: 6Z5E D domain as MBP fusion (designed binder, not shown: large carriers; small tags and cut ends)
chain: MGSWDEFGRRLYAIEWRLYALGGSEAELAAFEKEIAAFESELQAYKGKGSPEVEKLREIAAVIRSNLQAYRHN
notes: also called 8W9C (N50S)
Regarding B13, in test [4], the binding result was “binds”.

Values taken from patent US20240124605A1 (published 2024).
